US7364741B1, “Peptides of human Papilloma virus for use in human T cell response inducing compositions” (priority 1992, dated 2008)

What was measured:
[1] = system: MLDLQPETT-sensitized T2 cells; assay: In vitro induction of primary CTL response and cytotoxicity assay on peptide-sensitized T2 cells; type: cell-based, human; conditions: PBL of HLA-A2.1 donor stimulated with 80 μg/ml peptide; cytotoxicity assay on day 49; background: T2 with irrelevant peptide ATELQTTIH
Protocol: The expression of HLA-A2.1 on 174CEM.T2 cells (T2) is increased by incubating T2 cells in medium containing relevant peptide. T2 cells will present the relevant peptide bound to HLA-A2.1 in high amount and therefore are good antigen presenting cells (APC). In the response inducing method described below the T2 cell line is used as APC and post-Ficoll mononuclear cells are used as responder cells.
T2 cells in a concentration of 2×10^6 cells per ml were incubated for 13 h at 37° C. in a T 25 flask (Becton Dickinson, Falcon, Plymouth Engeland cat.nr. 3013) in serum-free IMDM (=Iscoves Modified Dulbecco's Medium: Biochrom KG, Seromed Berlin, Germany, cat.nr. F0465) with glutamine (2 mM, ICN Biochemicals Inc., Costa Meisa, USA, cat.nr. 15-801-55), antibiotics (100 IU/ml penicilline (Brocades Pharma, Leiderdorp, The Netherlands, 100 μg/ml kanamycine (Sigma, St. Louis, USA, K-0245)) and the selected peptide […] (=JWK3; SEQ ID NO:15) in a concentration of 80 μg/ml.
These incubated T2 cells were spun down and subsequently treated in a density of 20×10^6 cells/ml with Mitomycine C (50 μg/ml) in serum-free RPMI (Gibco Paislan, Scotland, cat.nr. 041-02409) medium for 1 h at 37° C. Hereafter the T2 cells were washed three times in RPMI. […]

HLA-A2.1 = target: T1, HLA-A2.1 (Homo sapiens, UniProt P04439, D140Y/D185E/D98H/E176V/E277Q/G131W/G231S/I119V/I121R/I166T/I218V/L300P/L318F/N151K/N90K/P208A/P217A/Q86G/Q94H/R138H/R169H/T345S); type: cell-based; conditions: HPV16 peptides, 200 μg/ml peptide, 16 hours, 174CEM.T2 cells
T1 construct: endogenous in cells; host or cells: 174CEM.T2
Protocol: Of all peptides a dilution of 1 mg/ml in 0.9% NaCl was made.
174CEM.T2 cells were cultured in Iscovel's modified Dulbecco's medium (Biochrom KG Seromed Berlin, Germany: F0465) supplemented with 100 IU/ml penicillin (Biocades Pharma, Leiderdorp, The Netherlands), 100 μg/ml kanamycin (Sigma St. Louis, USA:K-0254), 2 mM glutamine (ICN Biomedicals Inc. Costa Mesa, Calif., USA:15-801-55) and 10% fetal calf serum (FCS, Hyclone Laboratories Inc. Logan, Utah, USA:A-1115-L). Cells were cultured at a density of 2.5×10^5/ml during 3 days at 37° C., 5% CO2 in humified air.
174CEM.T2 cells were washed twice in culture medium without FCS and put in serum-free culture medium to a density of 2×10^6 cells/ml. Of this suspension 40 μl was put into a V bottomed 96 well plate (Greiner GmbH, Frickenhausen, Germany: 651101) together with 10 μl of the individual peptide dilutions (of 1 mg/ml). The end concentration is 200 μg/ml peptide with 8×10^4 174CEM.T2 cells. This solution was gently agitated for 3 minutes after which an incubation time of 16 hours at 37° C., 5% CO2 in humified air took place. Then cells were washed once with 100 μl 0.9% NaCl, 0.5% bovine serum albumin (Sigma St. Louis, USA: A-7409), 0.02% NaN3 (Merck Darmstadt, Germany:822335). After a centrifuge round of 1200 rpm the pellet was resuspended in 50 μl of saturating amounts of HLA-A2.1 specific mouse monoclonal antibody BB7.2 for 30 minutes at 4° C. Then cells were washed twice and incubated for 30 minutes with F(ab)2 fragments of goat anti-mouse IgG that had been conjugated with […] (Tago Inc Burlingame, Calif., USA: 4350) in a dilution of 1:40 and a total volume of 25 μl.
After the last incubation, cells were washed twice and fluorescence was measured at 488 nanometer on a FACScan flow-cytometer (Becton Dickinson, Franklin Lakes, N.J., USA).
The 174CEM.T2 cell line expresses “empty” and unstable HLA-A2.1 molecules that can be stabilized when a peptide is binding to the peptide presenting groove of these molecules. […] This leads to an increase in cell surface expression of the HLA-A2.1 molecule.
With background fluorescence level (without adding peptides) set on a Fluorescence Index level of 0, binding of a peptide was regarded positive when the level of fluorescence was ≧0.5.

Sequence: MLDLQPETT [HPV16 peptide 13, residues 12-20 of HPV16 protein E7]
- specificity of killing by peptide-induced bulk CTL culture [1]: seemed to be specific for killing MLDLQPETT (SEQ ID NO:15)-sensitized T2 cells
- MF (mean HLA-A2.1 fluorescence) (HLA-A2.1): 217.6
- FI (Fluorescence Index) (HLA-A2.1; background set on 0, binding positive when ≧0.5): 2.3
